Experiments:
mSNAPc#2 SNAP190-Y389A = target: T1, mSNAPc#2 SNAP190-Y389A (Homo sapiens, UniProt Q5SXM2;Q92966;Q16533;O75971 1-505;1-411;1-268;1-98, Y389A); assay: SPR; EMSA: 100 mM KCl, 25 mM HEPES-K pH 7.6, 12.5 mM MgCl2, 10 uM ZnCl2, 0.1 mM EDTA, 10% glycerol, 3 mM DTT, 0.5 mM PMSF, 50 nM DNA, RT 30 min; SPR: 100 mM KCl, 12.5 mM MgCl2, 10 uM ZnCl2, 0.1 mM EDTA, 0.05% P20, 25 C; settings: protein: recombinant; tags: as P1; copies: 1;1;1;1
T1 sequence 1: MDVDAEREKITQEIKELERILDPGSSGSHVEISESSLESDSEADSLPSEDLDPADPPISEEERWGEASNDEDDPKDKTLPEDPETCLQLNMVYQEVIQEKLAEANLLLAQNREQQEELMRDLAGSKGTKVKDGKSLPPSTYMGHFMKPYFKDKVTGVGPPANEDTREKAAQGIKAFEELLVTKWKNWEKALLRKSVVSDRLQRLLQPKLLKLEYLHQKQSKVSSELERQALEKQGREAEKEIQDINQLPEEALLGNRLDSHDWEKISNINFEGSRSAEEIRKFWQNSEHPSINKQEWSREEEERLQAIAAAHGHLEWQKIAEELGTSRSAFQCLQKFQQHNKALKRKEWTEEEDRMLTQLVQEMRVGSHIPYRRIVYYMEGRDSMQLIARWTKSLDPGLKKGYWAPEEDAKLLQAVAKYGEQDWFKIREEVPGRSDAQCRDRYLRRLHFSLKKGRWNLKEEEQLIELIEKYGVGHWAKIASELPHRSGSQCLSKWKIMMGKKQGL
T1 sequence 2: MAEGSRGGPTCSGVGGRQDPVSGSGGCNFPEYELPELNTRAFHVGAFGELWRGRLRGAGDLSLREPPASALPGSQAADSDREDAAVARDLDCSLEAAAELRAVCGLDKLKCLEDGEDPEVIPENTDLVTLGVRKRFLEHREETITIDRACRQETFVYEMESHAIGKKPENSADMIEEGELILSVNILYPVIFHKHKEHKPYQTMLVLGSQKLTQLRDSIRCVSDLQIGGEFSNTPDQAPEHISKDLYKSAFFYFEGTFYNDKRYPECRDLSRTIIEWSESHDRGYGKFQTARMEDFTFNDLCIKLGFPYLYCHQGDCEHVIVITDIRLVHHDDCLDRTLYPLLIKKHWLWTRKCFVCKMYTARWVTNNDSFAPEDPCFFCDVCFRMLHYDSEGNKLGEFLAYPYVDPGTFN
T1 sequence 3: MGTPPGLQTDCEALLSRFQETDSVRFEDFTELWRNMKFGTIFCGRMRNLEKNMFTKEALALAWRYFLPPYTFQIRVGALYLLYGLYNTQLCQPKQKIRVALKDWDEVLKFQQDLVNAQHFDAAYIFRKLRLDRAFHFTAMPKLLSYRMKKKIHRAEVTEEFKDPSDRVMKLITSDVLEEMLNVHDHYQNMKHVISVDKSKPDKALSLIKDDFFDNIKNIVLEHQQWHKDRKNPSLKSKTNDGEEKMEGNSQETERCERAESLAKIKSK
T1 sequence 4: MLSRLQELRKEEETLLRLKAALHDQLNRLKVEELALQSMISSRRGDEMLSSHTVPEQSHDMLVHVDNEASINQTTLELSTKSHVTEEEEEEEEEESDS

mSNAPc#2 WT = target: T2, mSNAPc#2 WT (Homo sapiens, UniProt Q5SXM2;Q92966;Q16533;O75971 1-505;1-411;1-268;1-98); assay: SPR; protein immobilized; EMSA: 100 mM KCl, 25 mM HEPES-K pH 7.6, 12.5 mM MgCl2, 10 uM ZnCl2, 0.1 mM EDTA, 10% glycerol, 3 mM DTT, 0.5 mM PMSF, 50 nM DNA, RT 30 min; SPR: 100 mM KCl, 12.5 mM MgCl2, 10 uM ZnCl2, 0.1 mM EDTA, 0.05% P20, 25 C; settings: protein: recombinant; tags: FLAG N-term SNAP190; 6xHis N-term SNAP43; copies: 1;1;1;1
T2 sequence 1: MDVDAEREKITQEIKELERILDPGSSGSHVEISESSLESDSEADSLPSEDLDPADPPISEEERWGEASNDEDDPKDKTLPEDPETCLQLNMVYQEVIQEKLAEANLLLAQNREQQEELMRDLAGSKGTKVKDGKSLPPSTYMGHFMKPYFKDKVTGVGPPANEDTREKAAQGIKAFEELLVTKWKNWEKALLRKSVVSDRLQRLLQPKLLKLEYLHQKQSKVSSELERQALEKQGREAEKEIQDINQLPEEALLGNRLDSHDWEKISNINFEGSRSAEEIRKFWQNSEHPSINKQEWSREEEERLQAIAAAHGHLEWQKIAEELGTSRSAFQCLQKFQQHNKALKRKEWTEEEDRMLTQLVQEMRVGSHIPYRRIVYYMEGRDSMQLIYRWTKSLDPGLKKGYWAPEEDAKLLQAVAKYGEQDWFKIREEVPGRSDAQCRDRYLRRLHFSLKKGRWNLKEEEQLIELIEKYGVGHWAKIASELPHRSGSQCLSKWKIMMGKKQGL
T2 sequence 2: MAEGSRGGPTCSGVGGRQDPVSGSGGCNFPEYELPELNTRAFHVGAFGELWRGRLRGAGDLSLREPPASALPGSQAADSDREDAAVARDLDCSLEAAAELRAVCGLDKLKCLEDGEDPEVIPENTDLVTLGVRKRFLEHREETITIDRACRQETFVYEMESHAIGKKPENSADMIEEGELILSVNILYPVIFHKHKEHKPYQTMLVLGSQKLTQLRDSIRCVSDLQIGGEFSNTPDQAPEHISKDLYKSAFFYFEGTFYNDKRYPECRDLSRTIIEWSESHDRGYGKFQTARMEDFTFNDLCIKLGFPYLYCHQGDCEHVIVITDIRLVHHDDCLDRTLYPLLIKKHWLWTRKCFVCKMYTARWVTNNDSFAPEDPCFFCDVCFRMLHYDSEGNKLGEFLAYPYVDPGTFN
T2 sequence 3: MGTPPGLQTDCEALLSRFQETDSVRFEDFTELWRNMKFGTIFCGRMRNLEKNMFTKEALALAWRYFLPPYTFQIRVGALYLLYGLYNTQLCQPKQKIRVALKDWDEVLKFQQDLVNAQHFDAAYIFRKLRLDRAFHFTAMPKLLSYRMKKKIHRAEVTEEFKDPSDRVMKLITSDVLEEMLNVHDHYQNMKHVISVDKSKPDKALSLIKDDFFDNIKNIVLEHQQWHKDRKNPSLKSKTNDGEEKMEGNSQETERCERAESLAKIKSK
T2 sequence 4: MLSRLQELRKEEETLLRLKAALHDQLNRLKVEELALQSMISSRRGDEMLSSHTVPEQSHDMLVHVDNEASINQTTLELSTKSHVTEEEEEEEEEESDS

B1: 25 bp hU6-1 PSE (SPR) (dsDNA)
DNA 1: TGCTTACCGTAACTTGAAAGTATTT
DNA 2: AAATACTTTCAAGTTACGGTAAGCA
Kd (mSNAPc#2 SNAP190-Y389A): 1080 nM
Kd (mSNAPc#2 WT): 289 nM

Source: paper PMC9652321, “Structural basis of human SNAPc recognizing proximal sequence element of snRNA promoter”
